# In US20260365719 (published 2026):
# Where a chain is given by its changes, count along the chain named.
# B1: 6R9A-A2 (antibody, V domains shown)
# VH: EVQLVESGGGLVQPGGSLRLSCTASGFSFPHQAMTWVRQAPGKGLEWIGVIASNADTYYASWAKGRFTISRDNSKNTLYLQMNSLRAEDTAVYYCARHPGSAGYGYQYYYAMDPWGQGTLVTVSS
# VL: DIQMTQSPSSLSASVGDRVTITCQASEEVHYGINWYQQKPGKAPKLLIYGANYRVDGVPSRFSGSGSGTDYTLTISSLQPEDFATYYCQQGYNVPTDFGGGTKVEIKR
# B2: 6R8C-F10 (antibody, V domains shown)
# VH: B1 VH with T23K, S28T, P30S, H31R, M34L
# VL: B1 VL with Q24K, E28D, V29I, H30R, I33L, T96N, D97F
# B3: 6R8C-D10 (antibody, V domains shown)
# VH: B1 VH with F27Y, F29I, P30S, M34V
# VL: B1 VL
# B4: 6R8A-F2 (antibody, V domains shown)
# VH: B1 VH with T23K, F27Y, F29L, P30S, H31S, M34L
# VL: B1 VL with E28K, H30Y, I33V, A51T, V55L, Y71S, T96N, D97A
# B5: 6R8A-E11 (antibody, V domains shown)
# VH: B1 VH with T23K, S28T, P30S, H31R, M34L
# VL: B1 VL with E28N, V29I, H30R, G32A
# B6: 6R9B-B11 (antibody, V domains shown)
# VH: B1 VH with T23K, S28T, P30S, H31R, M34L
# VL: B1 VL with E27Q, E28A, V29I, H30K, G32A, V55G, D56P, N93I, T96I, D97T
# B7: 6R9B-E9 (antibody, V domains shown)
# VH: B1 VH with T23K, S28T, P30S, H31R, M34L
# VL: B1 VL with E28N, V29I, H30R, G32A, I33V, N93R, P95Q, T96I, D97L
# B8: 6R8C-D9 (antibody, V domains shown)
# VH: B1 VH with T23K, S28T, P30S, H31R, M34L
# VL: B1 VL
# B9: 6R9E-A8 (antibody, V domains shown)
# VH: B1 VH with T23K, F27S, S28T, F29I, P30S, M34V
# VL: B1 VL
# B10: 6R8C-G8 (antibody, V domains shown)
# VH: B1 VH with P14L, T23K, F27Y, F29L, P30A, H31P
# VL: B1 VL
# B11: 6R8A-E1 (antibody, V domains shown)
# VH: B1 VH with T23K, F27Y, F29L, P30A, H31P
# VL: B1 VL with E28N, V29I, H30R, G32A
# B12: 6R8A-A2 (antibody, V domains shown)
# VH: B1 VH with T23K, F27Y, F29L, P30N, H31K, M34L
# VL: B1 VL
# B13: Bebtelovimab (antibody, V domains shown)
# VH: QITLKESGPTLVKPTQTLTLTCTFSGFSLSISGVGVGWLRQPPGKALEWLALIYWDDDKRYSPSLKSRLTISKDTSKNQVVLKMTNIDPVDTATYYCAHHSISTIFDHWGQGTLVTVSS
# VL: QSALTQPASVSGSPGQSITISCTATSSDVGDYNYVSWYQQHPGKAPKLMIFEVSDRPSGISNRFSGSKSGNTASLTISGLQAEDEADYYCSSYTTSSAVFGGGTKLTVLG
# Target: SARS-CoV-2 spike trimer (Wuhan) (SARS-CoV-2, UniProt P0DTC2)
# Test: competition
row,Binder,IC50 [µg/mL]
1,B1,0.014
2,B2,0.0145
3,B3,0.0098
4,B4,0.0169
5,B5,0.0116
6,B6,0.015
7,B7,0.0185
8,B8,0.0203
9,B9,0.0274
10,B10,0.0124
11,B11,0.0122
12,B12,0.0106
13,B13,0.00899
